According to patent publication US20240287172A1 (SCIRHOM, published 2024):

T1: dog iRhom2 full length wild type, T7-tagged (dog, UniProt Q00M95 1-827)
T1 construct: whole, on cells; on MEF-DKO cells; also called Dog-iR2-FL-WT-T7
T1 sequence: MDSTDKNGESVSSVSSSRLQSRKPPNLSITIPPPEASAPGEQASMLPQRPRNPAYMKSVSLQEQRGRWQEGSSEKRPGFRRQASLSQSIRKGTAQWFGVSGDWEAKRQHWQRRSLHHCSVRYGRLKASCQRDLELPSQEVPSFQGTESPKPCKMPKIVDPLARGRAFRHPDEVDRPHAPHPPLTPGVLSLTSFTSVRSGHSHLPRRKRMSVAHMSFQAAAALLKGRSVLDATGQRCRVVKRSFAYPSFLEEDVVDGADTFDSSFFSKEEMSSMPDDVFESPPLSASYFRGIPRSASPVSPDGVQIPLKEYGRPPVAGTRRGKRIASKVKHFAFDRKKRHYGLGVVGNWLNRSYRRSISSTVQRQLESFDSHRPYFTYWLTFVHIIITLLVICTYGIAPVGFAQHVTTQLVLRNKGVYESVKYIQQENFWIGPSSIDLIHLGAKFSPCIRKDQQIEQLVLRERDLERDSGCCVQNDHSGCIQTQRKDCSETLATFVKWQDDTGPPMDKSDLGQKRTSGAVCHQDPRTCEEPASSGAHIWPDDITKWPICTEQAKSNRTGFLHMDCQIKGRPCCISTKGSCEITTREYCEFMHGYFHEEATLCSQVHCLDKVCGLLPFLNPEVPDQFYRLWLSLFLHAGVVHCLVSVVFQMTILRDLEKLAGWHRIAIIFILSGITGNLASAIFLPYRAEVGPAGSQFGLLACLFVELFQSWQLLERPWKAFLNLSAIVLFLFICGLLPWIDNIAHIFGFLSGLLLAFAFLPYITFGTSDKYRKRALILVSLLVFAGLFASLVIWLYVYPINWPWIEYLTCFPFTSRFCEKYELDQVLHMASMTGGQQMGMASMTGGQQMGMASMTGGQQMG

T2: hiR2-FL-P533-T7 (deletion of P533) (human, UniProt Q6PJF5 1-856)
T2 construct: single residue deletion, not a substitution; on MEF-DKO cells
T2 sequence: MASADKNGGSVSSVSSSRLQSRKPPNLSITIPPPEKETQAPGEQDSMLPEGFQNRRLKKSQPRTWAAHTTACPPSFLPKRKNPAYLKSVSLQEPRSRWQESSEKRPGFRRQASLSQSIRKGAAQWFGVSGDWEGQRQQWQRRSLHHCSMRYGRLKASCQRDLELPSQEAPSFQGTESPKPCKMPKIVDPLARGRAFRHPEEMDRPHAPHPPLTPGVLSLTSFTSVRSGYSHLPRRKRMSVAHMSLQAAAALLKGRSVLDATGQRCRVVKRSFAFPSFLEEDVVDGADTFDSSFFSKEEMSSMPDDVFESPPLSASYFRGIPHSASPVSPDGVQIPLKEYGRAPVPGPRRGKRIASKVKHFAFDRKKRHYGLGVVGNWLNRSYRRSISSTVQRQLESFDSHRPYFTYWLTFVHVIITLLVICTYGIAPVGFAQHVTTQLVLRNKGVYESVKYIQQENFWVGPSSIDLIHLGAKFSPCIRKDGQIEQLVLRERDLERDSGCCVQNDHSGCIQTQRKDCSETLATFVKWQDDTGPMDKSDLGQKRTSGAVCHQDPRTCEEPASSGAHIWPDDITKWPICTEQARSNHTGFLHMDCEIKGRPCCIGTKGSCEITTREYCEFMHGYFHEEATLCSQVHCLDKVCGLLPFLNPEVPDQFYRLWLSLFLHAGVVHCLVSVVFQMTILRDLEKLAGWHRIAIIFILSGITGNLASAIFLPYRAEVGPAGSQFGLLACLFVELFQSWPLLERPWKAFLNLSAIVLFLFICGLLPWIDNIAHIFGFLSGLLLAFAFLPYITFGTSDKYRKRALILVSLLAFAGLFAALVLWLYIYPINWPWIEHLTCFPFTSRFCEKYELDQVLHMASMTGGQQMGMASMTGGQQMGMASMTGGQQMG

B1: antibody 48 (antibody, V domains shown)
VH: QVQLQQSGTELVRPGTSVKVSCKASGYAFTNYLIEWVKQRPGQGLEWIGVINPGSGFTKYNEKFKGKATLTADKSSSTVYMHLSSLTSEDSAVYFCARGLYRAMDYWGQGTSVTVSS
VL: DIQMTQSPASQSASLGESVTITCLASQTIATWLAWYQQKPGKSPQLLIYGATTLADGVPSRFSGGGSGTKFSFKISSLQAEDFVSYYCQQLYSTPYTFGGGTKLEIK
notes: mouse IgG, kappa light chain; also called clone #48; purified antibody 48
B2: antibody 47 (antibody, V domains shown)
VH: QVQLQQSGAELVRPGTSVKVSCKASGYAFTNYLIEWVKQRPGQGLEWIGVINPGSGFTNYNEKFKGKAILNADKSSSTAYMQLISLTSEDSAVYFCARDLKRAMDHWGQGTSVTVSS
VL: DIQMTQSPASQSASLGESVTITCLASQTIGTWLAWYQQKPGKSPQLLIHAATSLADGVPSRFSGSGSGTKFSFKISSLQAEDFVSYYCQQIYSSPYTFGGGTKLEIK
notes: mouse IgG, kappa light chain; also called clone #47
B3: antibody 50 (antibody, V domains shown)
VH: QVQLQQSGAELVRPGASVKVSCKASGYAFSNYLIEWVKQRPGQGLEWIGVINPGSGFTKYNEKFKGKATLTADKSSSTAYMQLSSLTSEDSAVYFCARGLYRAMDYWGQGTSVTVSS
VL: DIQMTQSPASQSASLGESVTITCLASQTIGTWLAWYQQKPGKSPQLLIYAAASLADGVPSRFSGGGSGTKFSFKISSLQAEDFVNYYCQQIYSTPYTFGGGTKLEIK
notes: mouse IgG, kappa light chain; also called clone #50; purified antibody 50
B4: antibody 51 (antibody, V domains shown)
VH: QVQLQQSGAELVKPGASVKISCKASGYTFSNYWMNWVKQRPGKGLEWIGQIYPGDGDTKYNGKFKNKATLTADKSSSTAYMQFSSLTSEDSAVYFCARGDLVFVYWGLGTLVTVSA
VL: DVQITQSPSYLAVSPGETITINCRASKNIRKYLAWYQEKPGKTNKLLIYSGSTSQSGVPSRFSGSGSGTDFTLTISSLEPEDFAMYYCQQHNEYPYTFGGGTKLEIK
notes: mouse IgG, kappa light chain; also called clone #51
B5: antibody 46 (antibody, V domains shown)
VH: QVTLKESGPGILQPSQTLSLTCSFSGFSLSTFGMGVGWIRQPSGKGLEWLAHIWWDDDNYYNQALKSRLTISKDNTKNQVFLNIANVDTADTATYYCARIRSYDYDVRYAMDYWGQGTSVTVSS
VL: DIKMTQSPSSMYASLRERVTITCKASQDINSYLSWFQQKPGKSPKTLIYRANRLVDGVPSRFSGSGSGQDYSLTISSLEYEDLGIYYCQQYYEFPLTFGAGTRLELK
notes: mouse IgG, kappa light chain; also called clone #46
B6: antibody 5 (antibody, V domains shown)
VH: QVTLKESGPGILQPSQTLSLTCSFSGFSLSTFGMGVGWIRQPSGKGLEWLAHIWWDDEKYYNSALKSRLTISKATSKNQAFLKIANVDTADTATYYCARISNYGSNYWYFNVWGTGTTVTVSS
VL: QVVLTQSPALMSASPGEKVTMTCSAGSSVSCMYWYQQKPGSSPRVLIYDTSNLASGVPARFTGSGSGTSYSLTISRMEAEDAASYYCQQWNSYPLTFGAGTKLELK
notes: mouse IgG, kappa light chain; also called clone #5; purified antibody 5
B7: antibody 54 (antibody, V domains shown)
VH: QVTLKESGPGILQPSQTLSLTCSFSGFSLSTFGLGVGWIRQPSGKGLECLAHIWWDDDKYSNPALKSRLTISKDTSKNQVFLKIANVDSADTATYFCARILNYGSNYWYFDVWGTGTTVTVSS
VL: QIVLTQSPALMSASPGEKVTMTCSASSSISYMYWYQQKPGSSPRLLIYDTSNLASGVPVRFSGSGSGTSFSLTVSRMEAEDAATYYCQQWNSYPLTFGAGTKLELK
notes: mouse IgG, kappa light chain; also called clone #54
B8: antibody 57 (antibody, V domains shown)
VH: QVTLKESGPGILQPSQTLSLTCSFSGFSLSTFGMGVGWIRQPSGKGLEWLAHIWWDDDKYYNPALKSRLTISKDTSKNQIFLKIANVDTADSATFYCARIENYGSNYWYFDVWGTGTTVTVSS
VL: QIVLTQSPAIMSASPGEKVTMTCSASSSVSYMYWYQQKPGSSPRVLIYDTSNLASGVPVRFSGSGSGTSYSLTVSRMEAEDAATYYCQQWNSYPLTFGAGTKLELK
notes: mouse IgG, kappa light chain; also called clone #57
B9: antibody 42 (antibody, V domains shown)
VH: QVTLKESGPGILQPSQTLSLTCSLSGFSLSTFGRGVGWIRQPSGKGLEWLAHIWWDDEKYYNPALKSRLTISKDTSKNQVFLRIANVDTADTATYYCARIQNYGSNYWYFDVWGTGTTVTVSS
VL: LIVLTQSPAIMSASPGEKVTMTCGATSRISYMFWYQQKPGSSPRVLIYDTSNLASGVPVRFSGSGSGTSYSLTISRVEAEDVATYYCQQWNSYPLTFGAGTKLELK
notes: mouse IgG, kappa light chain; also called clone #42; purified antibody 42
B10: antibody 22 (antibody, V domains shown)
VH: QVTLKESGPGILQPSQTLSLTCSFSGFSLSTFGMGVGWIRQPSGKGLEWLAHIWWDDEKYYNSALKSRLTISKATSKNQVFLKIANVDTADTATYYCARISNYGSNYWYFNVWGTGTTVTVSS
VL: QVVLTQSPALMSASPGEKVTMTCSAGSSVSYMYWYQQKPGSSPRVLIYDTSNLASGVPARFTGSGSGTSYSLTISRMEAEDAATYYCQQWNSYPLTFGAGTKLELK
notes: mouse IgG, kappa light chain; also called clone #22; purified antibody 22
B11: antibody 49 (antibody, V domains shown)
VH: QVTLKESGPGILQPSQTLSLTCSFSGFSLSTFGMGVGWIRQPSGKGLEWLAHIWWDDDKYYNPALQSRLTVSKDTAKNQVFLKIANVDTADTAIYYCARVGNYGSNYWYFAVWGTGTTVTVSS
VL: QIVLTQSPAIMSASPGEKVTMTCSASSSVSYMYWYQQKPGSSPRLLIYDTSNLASGVPVRFSGSGSGTSYSLTISRMEAEDAATYYCQQWNSYPLTFGAGTKLELK
notes: mouse IgG, kappa light chain; also called clone #49
B12: antibody 56 (antibody, V domains shown)
VH: QVTLKESGPGILQPSQTLSLTCSFSGFSLSTFGMGVGWIRQPSGKGLEWLTNIWWDDDKYYNSVLKSRLTISKDTSKNQVFLKIANVDTADTATYYCARIAAYGSNYWYFDVWGTGTTVTVSS
VL: QIVLTQSPAIMSASPGEKVTMTCSASSSVSYMYWYQQKPGSSPRVLIYDTSNLSSGVPVRFSGSGSGTSYSLTISRMEAEDAATYYCQQWSSYPLTFGAGTKLELK
notes: mouse IgG, kappa light chain; also called clone #56
B13: antibody 16 (antibody, V domains shown)
VH: QVTLKESGPGILQPSQTLSLTCSFSGFSLSTFALGVGWIRQPSGRGLEWLAHIWWDDDKYYNPALKSRLTISKDTSKNHVFLKIANVDTADTATYYCARITTYYYGMDYWGQGTSVTVSS
VL: DIVLSQSPATLSVTPGDSVSLFCRASQSIGNHLHWYQQESHASPRLLIKYASQSISGIPSRFSGSGSGTDFTLSINSVETEDFGMYFCQQSYNWPLTFGAGTKLELK
notes: mouse IgG, kappa light chain; also called clone #16; purified antibody 16

Tests used:
[1] = target: T1, dog iRhom2 full length wild type, …; test: FACS, MEF-DKO cells; via representative antibody 16
Procedure: In brief, immortalized MEF-DKO-EV control cells, MEF-DKO-rhesus-iR2-FL-WT-T7 cells, MEF-DKO-cyno-iR2-FL-WT-T7 cells, MEF-DKO-dog-iR2-FL-WT-T7 cells and MEF-DKO-rabbit-iR2-FL-WT-T7 cells, as well as their respective iRhom1 counterparts, were harvested with 10 mM EDTA in PBS, washed and resuspended in FACS buffer (PBS, 3% FBS, 0.05% sodium azide), and seeded in Nunc U-bottom 96-well plates (Thermo Fisher Scientific, USA) at approximately 3×10⁵ cells per well. To pellet cells and remove supernatants, the plates were centrifuged at 1,500 rpm and 4° C. for 3 minutes. For primary staining, cells were resuspended in 100 μl per well of either FACS buffer alone (controls), mouse monoclonal anti-T7 IgG (Merck Millipore, USA) at 3 μg/ml FACS buffer or the antibodies of the invention also at 3 μg/ml FACS buffer and incubated on ice for 1 hour.
Afterwards, plates were centrifuged at 1,500 rpm and 4° C. for 3 minutes and washed twice with 200 μl per well of FACS buffer. For secondary staining, cells were spun down and resuspended in 100 μl per well of PE-conjugated goat anti-mouse IgG F(ab′)2 detection fragment (Dianova, Germany) diluted 1:100 in FACS buffer. Protected from light, the cell suspensions were incubated on ice for 1 hour. Plates were then centrifuged at 1,500 rpm and 4° C. for 3 minutes and washed three times with 200 μl per well of FACS buffer. Finally, cells were resuspended in 150 μl per well of FACS buffer and analyzed using a BD Accuri™ C6 Plus flow cytometer (Becton Dickinson, Germany).

[2] = target: T2, hiR2-FL-P533-T7 (deletion of P533); test: FACS on MEF-DKO cells

Row | Binder | binding result [1] | binding result [2]
1 | B1 | binds | 
2 | B2 | binds | 
3 | B3 | binds | 
4 | B4 | binds | 
5 | B5 | binds | 
6 | B6 | binds | no binding (tested: 3 µg/ml)
7 | B7 | binds | 
8 | B8 | binds | 
9 | B9 | binds | no binding (tested: 3 µg/ml)
10 | B10 | binds | no binding (tested: 3 µg/ml)
11 | B11 | binds | 
12 | B12 | binds | 
13 | B13 |  | no binding (tested: 3 µg/ml)
